We go through 1 substance from US20040235112A1.

The assay deals with JNKK (UniProt P45985). Put plainly: cell-based or functional assay.
Sequence of JNKK (P45985 whole entry): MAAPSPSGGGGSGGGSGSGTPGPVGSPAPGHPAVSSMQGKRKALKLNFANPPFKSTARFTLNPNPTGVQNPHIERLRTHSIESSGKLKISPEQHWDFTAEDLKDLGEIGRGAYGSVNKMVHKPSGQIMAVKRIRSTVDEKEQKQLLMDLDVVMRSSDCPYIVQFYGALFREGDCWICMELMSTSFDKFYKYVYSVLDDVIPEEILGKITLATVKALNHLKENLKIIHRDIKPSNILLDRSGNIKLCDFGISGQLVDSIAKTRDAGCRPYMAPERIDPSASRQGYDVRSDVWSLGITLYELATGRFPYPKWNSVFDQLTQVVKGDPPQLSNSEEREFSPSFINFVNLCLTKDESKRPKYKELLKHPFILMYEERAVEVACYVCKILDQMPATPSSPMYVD

In turn, MEKK (enzyme) came in with a JNKK activation in COS cells cotransfected with MEKK expression vector (immune complex kinase assay with GST-JNK2) (ng expression vector) of 125.
